These results are taken from IntAct's records for PubMed 16254079.

The labels stand for the following.
B1: Proliferation-associated protein 2G4 (Homo sapiens), Q9UQ80 (parent)
chain: MSGEDEQQEQTIAEDLVVTKYKMGGDIANRVLRSLVEASSSGVSVLSLCEKGDAMIMEETGKIFKKEKEMKKGIAFPTSISVNNCVCHFSPLKSDQDYILKEGDLVKIDLGVHVDGFIANVAHTFVVDVAQGTQVTGRKADVIKAAHLCAEAALRLVKPGNQNTQVTEAWNKVAHSFNCTPIEGMLSHQLKQHVIDGEKTIIQNPTDQQKKDHEKAEFEVHEVYAVDVLVSSGEGKAKDAGQRTTIYKRDPSKQYGLKMKTSRAFFSEVERRFDAMPFTLRAFEDEKKARMGVVECAKHELLQPFNVLYEKEGEFVAQFKFTVLLMPNGPMRITSGPFEPDLYKSEMEVQDAELKALLQSSASRKTQKKKKKKASKTAENATSGETLEENEAGD
partner: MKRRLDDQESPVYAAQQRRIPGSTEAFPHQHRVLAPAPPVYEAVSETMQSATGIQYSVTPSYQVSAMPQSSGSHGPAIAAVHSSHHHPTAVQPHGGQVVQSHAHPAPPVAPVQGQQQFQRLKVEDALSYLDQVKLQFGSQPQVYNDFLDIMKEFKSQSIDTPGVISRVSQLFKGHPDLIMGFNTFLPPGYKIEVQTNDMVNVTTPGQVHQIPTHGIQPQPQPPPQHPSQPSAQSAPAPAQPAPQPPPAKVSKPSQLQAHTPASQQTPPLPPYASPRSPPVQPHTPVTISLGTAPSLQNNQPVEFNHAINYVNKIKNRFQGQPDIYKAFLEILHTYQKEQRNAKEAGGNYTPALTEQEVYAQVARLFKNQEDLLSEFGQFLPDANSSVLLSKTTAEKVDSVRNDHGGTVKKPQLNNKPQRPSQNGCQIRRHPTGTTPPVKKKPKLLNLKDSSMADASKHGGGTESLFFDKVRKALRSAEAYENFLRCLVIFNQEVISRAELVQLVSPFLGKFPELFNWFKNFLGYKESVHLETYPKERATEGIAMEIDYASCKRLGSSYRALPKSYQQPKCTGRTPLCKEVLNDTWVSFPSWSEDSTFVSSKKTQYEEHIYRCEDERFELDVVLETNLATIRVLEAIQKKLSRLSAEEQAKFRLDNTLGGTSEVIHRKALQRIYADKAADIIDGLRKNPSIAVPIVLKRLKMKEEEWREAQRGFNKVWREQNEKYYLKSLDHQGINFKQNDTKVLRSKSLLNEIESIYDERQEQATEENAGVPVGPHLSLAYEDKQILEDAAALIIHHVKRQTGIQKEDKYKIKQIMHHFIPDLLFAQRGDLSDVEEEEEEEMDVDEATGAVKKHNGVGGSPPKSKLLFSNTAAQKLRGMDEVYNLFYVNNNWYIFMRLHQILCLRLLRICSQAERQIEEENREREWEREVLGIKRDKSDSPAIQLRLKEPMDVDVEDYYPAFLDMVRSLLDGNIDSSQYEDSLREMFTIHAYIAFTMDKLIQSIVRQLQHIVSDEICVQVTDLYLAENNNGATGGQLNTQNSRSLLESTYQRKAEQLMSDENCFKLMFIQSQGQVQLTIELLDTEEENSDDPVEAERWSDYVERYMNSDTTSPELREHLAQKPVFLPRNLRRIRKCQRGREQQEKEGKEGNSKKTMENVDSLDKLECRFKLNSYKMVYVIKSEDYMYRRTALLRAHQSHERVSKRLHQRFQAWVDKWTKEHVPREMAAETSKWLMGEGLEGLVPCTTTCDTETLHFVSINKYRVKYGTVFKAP

Variants of B1 are the subject of this assay. Conditions: with sin3a_human SIN3A.
As for MSGEDEQQEQTIAEDLVVTKYKMGGDIANRVLRSLVEASSSGVSVLSLCEKGDAMIMEETGKIFKKEKEMKKGIAFPTSISVNNCVCHFSPLKSDQDYILKEGDLVKIDLGVHVDGFIANVAHTFVVDVAQGTQVTGRKADVIKAAHLCAEAALRLVKPGNQNTQVTEAWNKVAHSFNCTPIEGMLSHQLKQHVIDGEKTIIQNPTDQQKKDHEKAEFEVHEVYAVDVLVSSGEGKAKDAGQRTTIYKRDPSKQYGLKMKTSRAFFSEVERRFDAMPFTLRAFEDEKKARMGVVECAKHELLQPFNVLYEKEGEFVAQFKFTVLLMPNGPMRITSGPFEPDLYKSEMEVQDAELKAAAQSSASRKTQKKKKKKASKTAENATSGETLEENEAGD [L357A;L358A], the “effect of a mutation on the interaction” value is “disrupting interaction”.
